# In patent US20050277581A1:
# Several values for one entry are separate records, joined by “and”; a condition that tells them apart may be missing. Identical values can stand only once.
# What was measured:
# [1] = target: N,N′-diacetyl-Lys-D-Ala-D-Ala (Sigma D-9904, fw 372.4); assay: ITC, 10 C, no HSA
# [2] = target: N,N′-diacetyl-Lys-D-Ala-D-Ala (Sigma D-9904, fw 372.4); assay: ITC, 25 C, no HSA
# [3] = target: N,N′-diacetyl-Lys-D-Ala-D-Ala (Sigma D-9904, fw 372.4); assay: ITC, 25 C, 513 µM HSA present
# [4] = target: N,N′-diacetyl-Lys-D-Ala-D-Ala (Sigma D-9904, fw 372.4); assay: ITC, 37 C, no HSA
# human serum proteins = assay: cell-based or functional assay
# mouse serum proteins = assay: cell-based or functional assay
# [5] = target: N,N′-diacetyl-Lys-D-Ala-D-Ala (Sigma D-9904, fw 372.4); assay: ITC, 25 C, 104 µM HSA present
# [6] = target: N,N′-diacetyl-Lys-D-Ala-D-Ala (Sigma D-9904, fw 372.4); assay: ITC, 25 C, 288 µM HSA present
# [7] = target: N,N′-diacetyl-Lys-D-Ala-D-Ala (Sigma D-9904, fw 372.4); assay: ITC, 25 C, 430 µM HSA present
# [8] = target: N,N′-diacetyl-Lys-D-Ala-D-Ala (Sigma D-9904, fw 372.4); assay: ITC, 25 C, 601 µM HSA present
# [9] = target: N,N′-diacetyl-Lys-D-Ala-D-Ala (Sigma D-9904, fw 372.4); assay: ITC, 37 C, 482 µM HSA present
# bovine albumin (bovine) = bovine albumin (bovine) (UniProt P02769); assay: ITC, protein injected into dalbavancin
# dog albumin (dog) = dog albumin (dog) (UniProt P49822); assay: ITC, protein injected into dalbavancin
# [10] = target: human α-glycoprotein (human) (UniProt P02763); assay: ITC, protein injected into dalbavancin
# rat albumin (rat) = rat albumin (rat) (UniProt P02770); assay: ITC, protein injected into dalbavancin
# [11] = target: human albumin (HSA; Sigma A-3782; mw 69,366) (human) (UniProt P02768); assay: calculated from ITC Ka, dalbavancin 1-500 µM
# [12] = target: N,N′-diacetyl-Lys-D-Ala-D-Ala (Sigma D-9904, fw 372.4); assay: ITC, 25 C, non-competitive binding model (KL)
# [13] = target: N,N′-diacetyl-Lys-D-Ala-D-Ala (Sigma D-9904, fw 372.4); assay: ITC, preliminary experiments, no serum proteins
# Sequence of human α-glycoprotein (human) (P02763 19-201): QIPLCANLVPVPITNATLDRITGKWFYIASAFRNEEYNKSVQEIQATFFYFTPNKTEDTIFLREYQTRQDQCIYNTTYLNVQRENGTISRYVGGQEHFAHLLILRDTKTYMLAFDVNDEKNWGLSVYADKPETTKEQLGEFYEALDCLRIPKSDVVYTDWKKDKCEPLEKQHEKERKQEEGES
# Sequence of rat albumin (rat) (P02770 25-608 limits assumed): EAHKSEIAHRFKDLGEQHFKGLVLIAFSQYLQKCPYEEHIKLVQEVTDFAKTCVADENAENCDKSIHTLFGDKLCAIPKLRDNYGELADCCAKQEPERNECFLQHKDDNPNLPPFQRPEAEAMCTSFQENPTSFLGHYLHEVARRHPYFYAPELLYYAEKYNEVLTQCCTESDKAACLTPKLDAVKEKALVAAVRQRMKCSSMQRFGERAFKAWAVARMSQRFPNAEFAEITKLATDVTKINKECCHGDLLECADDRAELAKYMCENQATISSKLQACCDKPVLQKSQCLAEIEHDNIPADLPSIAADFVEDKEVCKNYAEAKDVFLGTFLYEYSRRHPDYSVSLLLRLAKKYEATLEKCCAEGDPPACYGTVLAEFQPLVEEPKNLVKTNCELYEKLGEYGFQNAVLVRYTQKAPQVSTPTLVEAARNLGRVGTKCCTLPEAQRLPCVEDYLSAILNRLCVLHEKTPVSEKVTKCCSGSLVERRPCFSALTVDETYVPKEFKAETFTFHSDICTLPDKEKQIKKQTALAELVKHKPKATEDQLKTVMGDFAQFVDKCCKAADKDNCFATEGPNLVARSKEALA
# Sequence of bovine albumin (bovine) (P02769 25-607 limits assumed): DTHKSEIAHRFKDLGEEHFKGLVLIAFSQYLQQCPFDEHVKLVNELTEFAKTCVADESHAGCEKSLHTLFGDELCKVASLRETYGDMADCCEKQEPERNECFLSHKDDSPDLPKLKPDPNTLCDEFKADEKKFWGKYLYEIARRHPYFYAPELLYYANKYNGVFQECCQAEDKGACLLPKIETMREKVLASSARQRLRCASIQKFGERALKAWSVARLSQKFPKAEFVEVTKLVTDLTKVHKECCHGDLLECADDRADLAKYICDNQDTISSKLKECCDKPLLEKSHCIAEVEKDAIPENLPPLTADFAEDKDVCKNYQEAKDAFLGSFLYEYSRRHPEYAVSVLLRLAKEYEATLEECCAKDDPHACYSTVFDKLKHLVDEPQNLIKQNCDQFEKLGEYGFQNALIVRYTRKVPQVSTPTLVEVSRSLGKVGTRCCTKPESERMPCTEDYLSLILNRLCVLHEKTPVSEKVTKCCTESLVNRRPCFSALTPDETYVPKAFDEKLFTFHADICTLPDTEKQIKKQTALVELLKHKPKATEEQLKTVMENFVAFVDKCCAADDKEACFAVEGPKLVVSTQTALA
# Sequence of dog albumin (dog) (P49822 25-608 limits assumed): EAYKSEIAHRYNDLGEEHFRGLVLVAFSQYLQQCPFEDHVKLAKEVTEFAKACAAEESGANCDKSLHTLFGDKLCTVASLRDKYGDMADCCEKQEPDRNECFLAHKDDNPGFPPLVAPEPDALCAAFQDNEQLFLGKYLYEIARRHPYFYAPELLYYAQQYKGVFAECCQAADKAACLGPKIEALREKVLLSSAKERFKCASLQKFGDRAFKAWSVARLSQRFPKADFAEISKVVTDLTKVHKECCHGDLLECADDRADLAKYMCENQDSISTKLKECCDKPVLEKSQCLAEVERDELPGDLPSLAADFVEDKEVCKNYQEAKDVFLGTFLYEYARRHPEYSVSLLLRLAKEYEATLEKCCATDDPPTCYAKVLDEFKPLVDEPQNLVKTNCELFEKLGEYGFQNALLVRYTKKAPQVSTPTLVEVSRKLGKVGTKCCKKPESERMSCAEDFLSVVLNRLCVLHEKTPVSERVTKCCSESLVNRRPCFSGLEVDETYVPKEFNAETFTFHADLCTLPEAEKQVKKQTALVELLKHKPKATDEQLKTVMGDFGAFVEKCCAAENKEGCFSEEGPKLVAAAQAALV
N [1],N [2],N [3],N [4],degree of binding in human serum estimated from MIC difference (human serum proteins),degree of protein binding estimated from MIC difference (mouse serum proteins),N [5],N [6],N [7],N [8],N [9],N (moles of protein per dalbavancin) (bovine albumin (bovine)),N (moles of protein per dalbavancin) (dog albumin (dog)),N (moles of protein per dalbavancin) [10],N (moles of protein per dalbavancin) (rat albumin (rat)),percent bound [11],Kd [12],Kd [13],Substance
1.1,0.91 and 0.97,1.05,,,,,,,,,,,,,,,,"Vancomycin hydrochloride (Sigma V-2002, fw 1485.7) (peptide)"
,,,0.82,96%,99.6%,1.38,0.9,1.24,0.86,0.179,< 1,< 1,< 1,< 1,> 98%,3 µM,10 µM,Dalbavancin (peptide)
